Experimental findings from patent publication US20070078102A1, “NF-kB oligonucleotide decoy molecules” (published 2007) are described below.

Data set [1] deals with T1, NF-kB p50/p50 homodimer (NFKB1) (Homo sapiens, UniProt P19838 P19838:1-433). The experiment in a line: competition; EMSA competition vs HIV NF-kB probe 113/114. Conditions: protein: extract; tags: endogenous, nuclear extract of LPS-stimulated THP-1 cells; chain copies: 2 (stated). The text has this:
(§1) The EMSA assay was employed to characterize oligonucleotide decoys for the NF-κB transcription factor. […] Using the above modified oligonucleotides to compete for binding for the above-mentioned NF-κB family members, it was possible to compare the binding affinity of these oligonucleotides against the high affinity radiolabeled probe and each other. This assay has also enabled the design of a decoy which selectively binds particular members of the NF-κB family. By using increasing concentrations of various oligonucleotides, it was observed that, by deleting or changing targeted residues in the binding site, it was possible to specifically decrease the binding of the decoy molecule to p50/p50 homodimers, while retaining the affinity for p65/p50 and cRel/p50 heterodimers.
(§2) The NF-κB gel shift assays (EMSA) were performed as follows. A double-stranded oligonucleotide containing a consensus NF-κB binding site (5′ […] 3′) (SEQ ID NO: 78) was end-labeled with γ³²P-ATP using T4 Polynucleotide Kinase (Promega). Alternatively, a double-stranded ODN containing a consensus NF-κB binding site from the IL-6 promoter (5′ […] 3′) (SEQ ID NO: 94) was end-labeled with γ³²P-ATP using T4 Polynucleotide Kinase (Promega). One microgram of a nuclear extract prepared from LPS stimulated THP-1 cells (human monocyte cell line) was incubated with 35 fmol of radiolabeled probe in the presence or absence of competing unlabeled NF-κB double-stranded oligonucleotides (dsODN) or scrambled dsODN. The incubations were carried out at room temperature for 30 minutes in a 20 μl reaction volume composed of 10 mM Tris-HCl pH 8, 100 mM KCL, 5 mM MgCl2, 2 mM DTT, 10% Glycerol, 0.1% NP-40, 0.025% BSA and 1 μg Poly-dIdC. The reactions were loaded onto a 6% polyacrylamide gel, subjected to electrophoresis and dried. The dried gels were imaged and quantitated using a Typhoon 8600 PhosphorImager (Amersham) and ImageQuant software.

For data set [2], the target named is T2, NF-κB p65 from nuclear extract of LPS stimulated THP-1 cells (human monocyte cell line) (human, UniProt Q04206 1-551).
T2 construct: also called RelA
The experiment in a line: EMSA with antibody supershift, THP-1 nuclear extract; heterodimer on DNA probe. As for the experimental part:
as §2, with “software. […]” for “software.”

Data set [3] has as its target T3, NF-kB p65/p50 heterodimer (RelA/NFKB1) (Homo sapiens, UniProt Q04206;P19838 Q04206:1-551,P19838:1-433). Briefly: EMSA; competition vs 32P 113/114 probe. Conditions: protein: extract; tags: none; nuclear extract of LPS-stimulated THP-1 cells.
Excerpt: as §1, §2
Target sequence in this assay (Q04206 whole entry, chain 1 of 2, one chain of several): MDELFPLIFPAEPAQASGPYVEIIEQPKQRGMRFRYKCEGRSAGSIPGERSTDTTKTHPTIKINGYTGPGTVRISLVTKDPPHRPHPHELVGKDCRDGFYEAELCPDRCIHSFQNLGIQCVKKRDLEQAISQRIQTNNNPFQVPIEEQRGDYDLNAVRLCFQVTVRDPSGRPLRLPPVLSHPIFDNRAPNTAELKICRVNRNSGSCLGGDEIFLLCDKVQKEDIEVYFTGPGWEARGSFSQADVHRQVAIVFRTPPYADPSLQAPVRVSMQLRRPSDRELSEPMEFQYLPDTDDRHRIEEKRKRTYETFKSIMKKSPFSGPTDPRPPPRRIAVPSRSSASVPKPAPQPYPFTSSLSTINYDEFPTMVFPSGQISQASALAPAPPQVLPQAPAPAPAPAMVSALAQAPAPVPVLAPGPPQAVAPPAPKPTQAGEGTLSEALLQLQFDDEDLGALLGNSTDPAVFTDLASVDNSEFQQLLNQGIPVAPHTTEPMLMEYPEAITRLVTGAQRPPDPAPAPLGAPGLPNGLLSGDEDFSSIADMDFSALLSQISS

In data set [4] the target is T1, NF-kB p50/p50 homodimer (NFKB1). The experiment in a line: EMSA; competition vs 32P 113/114 probe. Conditions: protein: extract; tags: none; nuclear extract of LPS-stimulated THP-1 cells; chain copies: 2 (stated homodimer).
Excerpt: as §1, §2

The target of data set [5] is T3, NF-kB p65/p50 heterodimer (RelA/NFKB1). Briefly: EMSA; competition vs 32P 113/114 probe, THP-1 nuclear extract, RT. Conditions: protein: extract; tags: none; nuclear extract of LPS-stimulated THP-1 cells.
Excerpt: as §1
Target sequence in this assay (Q04206 whole entry, one chain of several): as the sequence (Q04206 whole entry, chain 1 of 2, one chain of several) above
The NF-κB gel shift assays (EMSA) were performed as follows. A double-stranded oligonucleotide containing a consensus NF-κB binding site (5′ […] 3′) (SEQ ID NO: 78) was end-labeled with γ³²P-ATP using T4 Polynucleotide Kinase (Promega). Alternatively, a double-stranded ODN containing a consensus NF-κB binding site from the IL-6 promoter (5′ […] 3′) (SEQ ID NO: 94) was end-labeled with γ³²P-ATP using T4 Polynucleotide Kinase (Promega). […] The dried gels were imaged and quantitated using a Typhoon 8600 PhosphorImager (Amersham) and ImageQuant software.

T2 sequence (Q04206 whole entry): as the sequence (Q04206 whole entry, chain 1 of 2, one chain of several) above

B1: 153/154 H5/PO (dsDNA)
DNA 1: AGTTGAGGACTTTCCAGGC
DNA 2: GCCTGGAAAGTCCTCAACT
modifications: strand 153: 5 3'-most linkages PS, strand 154 all PO
The molecule B1 yielded an IC50 in data set [1] of 83 fold molar excess.

B2: NF-κB p50 from nuclear extract of LPS stimulated THP-1 cells (human monocyte cell line) (other, UniProt P19838 1-433, looked up)
chain: MAEDDPYLGRPEQMFHLDPSLTHTIFNPEVFQPQMALPTDGPYLQILEQPKQRGFRFRYVCEGPSHGGLPGASSEKNKKSYPQVKICNYVGPAKVIVQLVTNGKNIHLHAHSLVGKHCEDGICTVTAGPKDMVVGFANLGILHVTKKKVFETLEARMTEACIRGYNPGLLVHPDLAYLQAEGGGDRQLGDREKELIRQAALQQTKEMDLSVVRLMFTAFLPDSTGSFTRRLEPVVSDAIYDSKAPNASNLKIVRMDRTAGCVTGGEEIYLLCDKVQKDDIQIRFYEEEENGGVWEGFGDFSPTDVHRQFAIVFKTPKYKDINITKPASVFVQLRRKSDLETSEPKPFLYYPEIKDKEEVQRKRQKLMPNFSDSFGGGSGAGAGGGGMFGSGGGGGGTGSTGPGYSFPHYGFPTYGGITFHPGTTKSNAGMKHG
Take B2: the binding result in data set [2] was “binds”.

B3: decoy 239 C-W' (dsDNA)
DNA 1: CTCGGGGACTTTCCCTCA
DNA 2: TGAGGGAAAGTCCCCGAG
On to B3, for which the IC50 in data set [3] and in data set [4] was 9 fold molar excess each time.

B4: decoy 145 A-Z (dsDNA)
DNA 1: AGTTGAGGGACTTTCCAGGC
DNA 2: GCCTGGAAAGTCCCTCAACT
Take B4: the IC50 in data set [3] and in data set [4] was 8 fold molar excess in each case.

B5: 153/154 H9/H9 (dsDNA)
DNA 1: AGTTGAGGACTTTCCAGGC
DNA 2: GCCTGGAAAGTCCTCAACT
modifications: 9 3'-most linkages PS on both strands
As to B5, the IC50 in data set [1] turned out to be 30 fold molar excess.

B6: decoy 113/114 C-Z (HIV NF-kB promoter) (dsDNA)
DNA 1: AGTTGAGGGGACTTTCCCAGGC
DNA 2: GCCTGGGAAAGTCCCCTCAACT
In the case of B6, the IC50 in data set [4] and in data set [5] was 5 fold molar excess each time.

B7: 153/154 H8/H8 (dsDNA)
DNA 1: AGTTGAGGACTTTCCAGGC
DNA 2: GCCTGGAAAGTCCTCAACT
modifications: 8 3'-most linkages PS on both strands
B7 had an IC50 in data set [1] of 53 fold molar excess.

B8: decoy 121 A-V (dsDNA)
DNA 1: TCGGGACTTTCCTC
DNA 2: GAGGAAAGTCCCGA
Take B8: the IC50 in data set [3] was 25 fold molar excess; in data set [4], 34 fold molar excess.

B9: 153/154 H8/H10 (dsDNA)
DNA 1: AGTTGAGGACTTTCCAGGC
DNA 2: GCCTGGAAAGTCCTCAACT
modifications: strand 153: 8 3'-most linkages PS, strand 154: 10 3'-most PS
The molecule B9 gave an IC50 in data set [1] of 39 fold molar excess.

B10: 153/154 H10/H10 (dsDNA)
DNA 1: AGTTGAGGACTTTCCAGGC
DNA 2: GCCTGGAAAGTCCTCAACT
modifications: 10 3'-most linkages PS on both strands
As to B10, the IC50 in data set [1] amounted to 42 fold molar excess.

B11: decoy 259 E-Z' (dsDNA)
DNA 1: TTGAGGACTTTCCAGGCTC
DNA 2: GAGCCTGGAAAGTCCTCAA
Regarding B11, the IC50 in data set [3] came to 87 fold molar excess; in data set [4], 85 fold molar excess.

B12: decoy 191 A-X (dsDNA)
DNA 1: CTGGGACTTTCCTC
DNA 2: GAGGAAAGTCCCAG
For the molecule B12, the IC50 was 19 fold molar excess in data set [3] and 22.5 fold molar excess in data set [4].

B13: decoy 195 C-V (dsDNA)
DNA 1: TCGGGGACTTTCCCTC
DNA 2: GAGGGAAAGTCCCCGA
For B13, the values for the IC50 in data set [3] and in data set [4] were 8.5 fold molar excess and 9 fold molar excess, respectively.

B14: 153/154 H11/PO (dsDNA)
DNA 1: AGTTGAGGACTTTCCAGGC
DNA 2: GCCTGGAAAGTCCTCAACT
modifications: strand 153: 11 3'-most linkages PS, strand 154 all PO
With B14, the IC50 in data set [1] was 33 fold molar excess.

B15: decoy 221 C-X (dsDNA)
DNA 1: CTGGGGACTTTCCCTC
DNA 2: GAGGGAAAGTCCCCAG
For B15, the IC50 in data set [3] and in data set [4] was 25 fold molar excess throughout.

B16: decoy 155 E-V (dsDNA)
DNA 1: TCGGACTTTCCTC
DNA 2: GAGGAAAGTCCGA
Consider B16, for which the IC50 in data set [3] came to 81 fold molar excess; in data set [4], 97 fold molar excess.

B17: 153/154 H10/H8 (dsDNA)
DNA 1: AGTTGAGGACTTTCCAGGC
DNA 2: GCCTGGAAAGTCCTCAACT
modifications: strand 153: 10 3'-most linkages PS, strand 154: 8 3'-most PS
On to B17, for which the IC50 in data set [1] was determined as 21 fold molar excess.

B18: decoy 207 L-Z (dsDNA)
DNA 1: AGTTGAGGACTTTCCCAGGC
DNA 2: GCCTGGGAAAGTCCTCAACT
As for B18, the IC50 in data set [3] was 20 fold molar excess; in data set [4] it was 45 fold molar excess.
